{"source": "the DeepSol protein solubility set", "data": [{"assay": "soluble on expression in E. coli; label from the status in PepcDB or PDB records", "values": [{"sequence": "MGSDKIHHHHHHMIDNIMAILEPVIGRTIKRKISTMSGKKLPFIAGHKLLYTCNLRCDMCPFWRRKDEKLLSLEEEIKMMDSLASAGVSFMGFEGGEPLLRNDLEDILKESHKRFHTSLVTNGWLLKGRASSISRYLDYLFVSIDGRKETHDKQRGVPSSFDHAIEGIKEAKKYVPVAMSTTITTNNMDDIKYVVNLAEELGIGVNIQVSYDYSTADKLSPDRKKLYDLLLDLKKMKEDGAPIVNSKEYFDTLVNSWYYGIPWACKPWSTVNIDPQGRIVMPCYVLNEYAGEKKVWEIDIKELWNTYDWKPYESCNKCSLSCYLEPSIFSWRKPSMVSERIFGSIADYIASIF", "soluble on expression in E. coli": "not soluble"}, {"sequence": "MGSDKIHHHHHHMIDVLVIGGGNAALCAALTAREAGASVTLLEAAPREWRGGNSQHTRNLRCMHDEPQDVLVDAYPEEEFWQDLLKVTGGITDEHLARLVIRHSSSCRDWMRRHGVNFQPPLSGTLHLSRTNAFFMGGGKALVNAYYRSARQLGVEIRYETPVDSLELDDNGNFIAAHTSSGRIEARSCVLACGGFESNREWLREAWGQNERGEWPGENFLIRGTRFNQGVLLKFLMQHGADIIGDPSQGHCVAIDARAPLYDGGICTRIDCVSLGIVVNRDAVRFYDEGEDFWPKRYAIWGRLTALQPGQIAYSIIDAKAIGRFMPPVFPGIQADTLPELARKIGLDEAQFVQTVETYNAACRIGTFDHTVLDDCHTENLQPAKTHWARPIDTGPFYAFAVRPGITFTYLGLKVDETAAVRFNGRPSENLFVAGEMMAGNVLGKGYTAGVGMSIGTAFGRIAGTQAAKAALQRHQTGALHEAA", "soluble on expression in E. coli": "not soluble"}, {"sequence": "MGSDKIHHHHHHMIEIGKRCTLEIVKRVDFGVYLNAHEFGQVLLPNKVAPQGCEVGDSVEVFLYLDSEDMVIATTKRPKAQVGQFAYLKAVATGPYGAFLDWGLDKDLMLPFGEQHREIEVGRSYLVYVYVNSADDRIVASSKIDKFLDRTPPPYRNGQEVSLIIAGTTDLGYKAIIDNGHWGVLYKNEVYQPLKFGQRIKGFIKRVRSDDKIDLILQRGAKEELDKHATAILMKLNQAGGFLPLTDKTDAEVIYAELAMSKKAFKKSIGGLYKQQKIAIEADGIRLTE", "soluble on expression in E. coli": "not soluble"}, {"sequence": "MGSDKIHHHHHHMIELDNIKICPLAGIDDAIIIQSLNKASLTTSTSAIGPAVAEMVTRHGAVLLRGFAPEGTSAMAALFASLQWKPLQYTYRSTPRTSVSEGIYTATEFPASEEIMLHSENAFQADWPTRIGFHCAVPARAGGETPIGSLEKITARIDTGLFDEFRRRGVSYVRNYSDYVDLPWQVVFQSSDRGDVEEYCKNHGIGFEWRNSGLRTWQACQGTATHPERGNEVWFNQAHMFHYTALGPEMASNLLSIFGEEELPRNAYYGDGGVIPKDAVEHIREAFSAERASFGWEKDDILLLDNMRYCHGRNPFEGPRQVLVSMGRGYASVVDSSH", "soluble on expression in E. coli": "not soluble"}, {"sequence": "MGSDKIHHHHHHMIELERVCKDYHTRQGMRRVLNRIDLRVKQGEKVGILGRNGAGKSTLIRMISGAELPTEGRIRRSMNVSWPLAFGGAFQGSLTGMDNLRFICRVYGADPKAAEPFVQEFSELGYYLREPVKSYSAGMRARLAFAISMAIEFDCFLIDEIVAVGDSRFHAKCHHELFEQRKDRALIIVSHDASYIRQHCDRASVLIEGKLHSFDSVEDAYTFYQESTA", "soluble on expression in E. coli": "not soluble"}, {"sequence": "MGSDKIHHHHHHMIERLELRNLTVFTGLTLELSPKINVIIGENGTGKTHLLKAAYGLCAGAPLFKNKPDTGDDELEAALTAKLLRLFMPLDDKLGKMHRQGATDQAYLSAKFAGGQKIAATFFNNSKALAVQDRANYEKYQAEAVFIPTKEVLSFMKGFNSLYEKYGLSFDQTYQDICLLLDLPEVRPETLHEKSKWAMAEIEGICGGRFVFYGGGKVTFKTENAEYSANSMAEGFRKAGILSRLLETGAIQPGVSGPLFWDEPESNLNPKLMKLLVQILLELSRNGQQIILATHDYVLLKWFDLLMDKGKDDHVRFHSLYRDADTSEIKVASTEDYLKITPNPIDEAFGFLINQEIENDMGGLGK", "soluble on expression in E. coli": "not soluble"}, {"sequence": "MGSDKIHHHHHHMIETQKEQERALLVGVELQQTDNFDMSMEELASLAKTAGALVKGVYTQKREKYDSKTFVGSGKLDEIAQMVEADEIDTVIVNNRLTPRQNVNLEEILGVKVIDRMQLILDIFAMRARSHEGKLQVHLAQLKYMLPRLVGQGIMLSRQAGGIGSRGPGESQLELNRRSIRNQIHDIERQLKTVEKNRATVRERRLQSGVFKIGLIGYTNAGKSTIMNVMTDKRQYEADELFATLDATTKQINLADKFNVTLTDTVGFIQDLPTELISAFKSTLEESMNVDLLLHIIDASDPNHSEQEQVVLDILKDLDMLDIPRLALYNKLDKTDDSFTPSQFPHVMLSAKDENAKGHIQMMVLAKIKTMFERFEVRVPLAESYKLHDLATLALIENRTYEEDVEVVSGYIASANKWKLEEFYDGLS", "soluble on expression in E. coli": "not soluble"}]}]}
